This note sets out measurements from patent US20250361322A1 (ICONIC THERAPEUTICS, published 2025).

Usually EC50 stands for the concentration giving half of the maximal effect. Read a low EC50 as a more potent agent.

Residue numbers refer to the chain shown, from its start.

Sequences and labels used below:
B1: 25A-vc-MMAE (antibody, IgG1, V domains shown)
VH: QVQLVQSGAEVKKPGASVKVSCKASGYTFDVYGISWVRQAPGQGLEWMGWIAPYNGNTNYAQKLQGRVTMTTDTSTSTAYMELRSLRSDDTAVYYCARDAGTYSPFGYGMDVWGQGTTVTVSS
VL: DIQMTQSPSTLSASVGDRVTITCRASQSISSWLAWYQQKPGKAPKLLIYKASSLESGVPSRFSGSGSGTEFTLTISSLQPDDFATYYCQQFQSLPPFTFGGGTKVEIK
modifications: MC-vc-PAB-MMAE on cysteines of the partially reduced antibody (chain and positions not stated), DAR 3-4
notes: Antibody-drug conjugate (primary ADC) of the IgG1 antibody; also called 25A ADC; 25A conjugated to MC-vc-PAB-MMAE
B2: 25A3-vc-MMAE (antibody, IgG1, V domains shown)
VH: B1 VH with N55S
VL: B1 VL with R24Q, S30N, S31N, S52Y, S53N, Q90L
modifications: MC-vc-PAB-MMAE on cysteines of the partially reduced antibody (chain and positions not stated), DAR 3-4
notes: Antibody-drug conjugate (primary ADC) of the IgG1 antibody; also called 25A3 ADC; 25A3 MMAE ADC
B3: anti-TF antibody 25G1 conjugated to MC-vc-PAB-MMAE (antibody, IgG1, V domains shown)
VH: B1 VH with D30R, V31S, I51V, N55S, F106Y
VL: B1 VL with Q27H, S30D, S53Y, Q90L
modifications: MC-vc-PAB-MMAE on cysteines of the partially reduced antibody (chain and positions not stated), DAR 3-4
notes: Antibody-drug conjugate (primary ADC) of the IgG1 antibody; also called 25G1 ADC
B4: anti-TF antibody 29E conjugated to MC-vc-PAB-MMAE (antibody, IgG1, V domains shown)
VH: QVQLVESGGGVVQPGRSLRLSCAASGFTFRSYGMHWVRQAPGKGLEWVAVITYDGINKYYADSVEGRFTISRDNSKNTLYLQMNSLRAEDTAVYYCARDGVYYGVYDYWGQGTLVTVSS
VL: not shown
modifications: MC-vc-PAB-MMAE on cysteines of the partially reduced antibody (chain and positions not stated), DAR 3-4
notes: Antibody-drug conjugate (primary ADC) of the IgG1 antibody; also called 29E ADC
B5: anti-TF antibody 54E conjugated to MC-vc-PAB-MMAE (antibody, IgG1, V domains shown)
VH: QVQLVQSGAEVKKPGASVKVSCKASGYTFANYYMHWVRQAPGQGLEWMGIINPSGGITVYAQKFQGRVTMTRDTSTSTVYMELSSLRSEDTAVYYCARGGSKVAALAFDIWGQGTMVTVSS
VL: DIQMTQSPSSLSASVGDRVTITCQASQDISNSLNWYQQKPGKAPKLLIYDASNLETGVPSRFSGSRSGTDFTFTISSLQPEDIATYYCQQYNFHPLTFGGGTKVEIK
modifications: MC-vc-PAB-MMAE on cysteines of the partially reduced antibody (chain and positions not stated), DAR 3-4
notes: Antibody-drug conjugate (primary ADC) of the IgG1 antibody; also called 54E ADC
B6: anti-TF antibody 39A conjugated to MC-vc-PAB-MMAE (antibody, IgG1, V domains shown)
VH: QVQLVQSGAEVKKPGSSVKVSCKASGGTFSSNAIGWVRQAPGQGLEWMGSIIPIIGFANYAQKFQGRVTITADESTSTAYMELSSLRSEDTAVYYCARDSGYYYGASSFGMDVWGQGTTVTVSS
VL: EIVMTQSPATLSVSPGERATLSCRASQSVSSNLAWYQQKPGQAPRLLIYGASTRATGIPARFSGSGSGTEFTLTISSLQSEDFAVYYCEQYNNLPLTFGGGTKVEIK
modifications: MC-vc-PAB-MMAE on cysteines of the partially reduced antibody (chain and positions not stated), DAR 3-4
notes: Antibody-drug conjugate (primary ADC) of the IgG1 antibody; also called 39A ADC

In one assay the target is T1, human Tissue Factor (hTF) (human, UniProt P13726 33-295). The experiment in a line: cell-based or functional assay.
On to B1, for which the “IC50, cell viability of A431 cells, Primary ADC, 4 hr, followed by washout (FIG. 20B)” value (“IC50, cell viability of A431 cells … (FIG. 20B)” below) was 0.35 nM and the “IC50, cell viability of A431 cells, Primary ADC, 4 hr, followed by washout, absence of FVIIa (FIG. 21A)” value (from here on “IC50, cell viability of A431 cells … (FIG. 21A)”) turned out to be 0.18 nM.

As to B2, the “IC50, cell viability of A431 cells … (FIG. 20B)” value came to 0.19 nM and the “IC50, cell viability of A431 cells … (FIG. 21A)” value worked out at 0.12 nM.

B3: the “IC50, cell viability of A431 cells … (FIG. 20B)” value came to 0.19 nM and the “IC50, cell viability of A431 cells … (FIG. 21A)” value stood at 0.1 nM.

On to B4, for which the “IC50, cell viability of A431 cells … (FIG. 20B)” value stood at 0.2 nM and the “IC50, cell viability of A431 cells … (FIG. 21A)” value was 0.13 nM.

In the case of B5, the “IC50, cell viability of A431 cells … (FIG. 20B)” value was 0.26 nM and the “IC50, cell viability of A431 cells … (FIG. 21A)” value was 0.2 nM.

Regarding B6, the “IC50, cell viability of A431 cells … (FIG. 20B)” value amounted to 0.12 nM and the “IC50, cell viability of A431 cells … (FIG. 21A)” value was 0.09 nM.

A further assay deals with T1, human Tissue Factor (hTF). The assay is described as follows: cell-based or functional assay. The source holds these as a separate data set.
Consider B1, for which the “IC50, cell viability of A431 cells, Primary ADC, Continuous (FIG. 20A)” value (“IC50, cell viability of A431 cells … (FIG. 20A)” for short) is 0.09 nM; the “IC50, cell viability of HPAF-II cells, Primary ADC, Continuous (FIG. 22E)” value (from here on “IC50, cell viability of HPAF-II cells”) was found to be 0.06 nM; the “IC50, cell viability of MDA-MB-231 cells, Primary ADC, Continuous (FIG. 22D)” value (“IC50, cell viability of MDA-MB-231 cells” below) came to 0.14 nM.

For B2, the “IC50, cell viability of A431 cells … (FIG. 20A)” value was 0.07 nM; the “IC50, cell viability of HPAF-II cells” value stood at 0.05 nM; the “IC50, cell viability of MDA-MB-231 cells” value came out at 0.11 nM.

B3: the “IC50, cell viability of A431 cells … (FIG. 20A)” value was 0.06 nM; the “IC50, cell viability of HPAF-II cells” value was found to be 0.04 nM; the “IC50, cell viability of MDA-MB-231 cells” value stood at 0.09 nM.

Turning to B4, the “IC50, cell viability of A431 cells … (FIG. 20A)” value was determined as 0.06 nM; the “IC50, cell viability of HPAF-II cells” value amounted to 0.04 nM; the “IC50, cell viability of MDA-MB-231 cells” value is 0.07 nM.

In the case of B5, the “IC50, cell viability of A431 cells … (FIG. 20A)” value amounted to 0.07 nM.

Regarding B6, the “IC50, cell viability of A431 cells … (FIG. 20A)” value came to 0.05 nM; the “IC50, cell viability of HPAF-II cells” value turned out to be 0.04 nM; the “IC50, cell viability of MDA-MB-231 cells” value amounted to 0.05 nM.

The target of the next assay is T2, human Tissue Factor on human TF-positive cells (human, UniProt P13726 33-295).
T2 construct: also called hTF; CD142
The assay is described as follows: flow cytometry, titration of the MC-vc-PAB-MMAE ADC on HCT-116 cells (human TF), 4-parameter fit of MFI. For orientation: Flow cytometry measures light scatter and fluorescence of single cells or particles in a stream.
In turn, B1 registered an EC50 of 0.34 nM.

B2 had an EC50 of 0.17 nM.

With B3, the EC50 worked out at 0.17 nM.

B4 returned an EC50 of 0.25 nM.

Molecule B5 showed an EC50 of 0.33 nM.

For B6, the EC50 was found to be 0.1 nM.
